Results reported in the supplement of paper PMC5998384.

Experiments:
HeLa Kyoto [1] = experiment: solubility in G1/S (NP-40 vs SDS abundance) (log2 ratio); higher = more soluble; details: cell cycle stage: G1/S
HeLa Kyoto [2] = experiment: solubility change mitosis vs G1/S (difference of NP-40 vs SDS log2 ratios) (log2 ratio difference); higher = more soluble in mitosis
HeLa Kyoto [3] = experiment: thermal stability score vs G1/S (z-score of summed log2 fold changes over temperatures); higher = more thermally stable than in G1/S
HeLa Kyoto [4] = experiment: melting temperature (median over replicates), in situ; higher = more thermally stable
[5] = cell cycle stage: early G1 (4.5 h after nocodazole release)
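Throughout, for melting temperature (median over replicates), in situ: HeLa Kyoto cells synchronized by double thymidine or nocodazole block, proteins quantified by TMT10plex mass spectrometry, three independent biological replicates.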
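Throughout, for solubility change mitosis vs G1/S (difference of NP-40 vs SDS log2 ratios): synchronized HeLa Kyoto cells (double thymidine block for G1/S, nocodazole release for mitosis), protein amounts in NP-40 versus SDS lysates quantified by mass spectrometry, three biological replicates.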
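Throughout, for solubility in G1/S (NP-40 vs SDS abundance): HeLa Kyoto cells arrested at G1/S by double thymidine block, proteins quantified by TMT10plex mass spectrometry in mild NP-40 versus SDS extracts, three biological replicates.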
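Throughout, for thermal stability score vs G1/S (z-score of summed log2 fold changes over temperatures): synchronized HeLa Kyoto cells, proteins quantified by TMT10plex mass spectrometry, three biological replicates, mitosis taken 0.5 h after nocodazole release, G1/S directly after double thymidine block.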

Row | Sequence | solubility in G1/S (log2) (HeLa Kyoto [1]) | solubility change mitosis (log2) (HeLa Kyoto [2]) | thermal stability score (HeLa Kyoto [3]; [5]) | thermal stability score (HeLa Kyoto [3]; cell cycle stage: mitosis) | melting temperature (HeLa Kyoto [4]; cell cycle stage: G1/S) [°C] | melting temperature (HeLa Kyoto [4]; cell cycle stage: mitosis) [°C]
1 | MGCDGGTIPKRHELVKGPKKVEKVDKDAELVAQWNYCTLSQEILRRPIVACELGRLYNKDAVIEFLLDKSAEKALGKAASHIKSIKNVTELKLSDNPAWEGDKGNTKGDKHDDLQRARFICPVVGLEMNGRHRFCFLRCCGCVFSERALKEIKAEVCHTCGAAFQEDDVIMLNGTKEDVDVLKTRMEERRLRAKLEKKTKKPKAAESVSKPDVSEEAPGPSKVKTGKPEEASLDSREKKTNLAPKSTAMNESSSGKAGKPPCGATKRSIADSEESEAYKSLFTTHSSAKRSKEESAHWVTHTSYCF [RTFDC1] | 0.0863 | -0.0475 | 1.24 | 2.61 | 47.6 | 50.2
2 | MGCSAKARWAAGALGVAGLLCAVLGAVMIVMVPSLIKQQVLKNVRIDPSSLSFNMWKEIPIPFYLSVYFFDVMNPSEILKGEKPQVRERGPYVYREFRHKSNITFNNNDTVSFLEYRTFQFQPSKSHGSESDYIVMPNILVLGAAVMMENKPMTLKLIMTLAFTTLGERAFMNRTVGEIMWGYKDPLVNLINKYFPGMFPFKDKFGLFAELNNSDSGLFTVFTGVQNISRIHLVDKWNGLSKVDFWHSDQCNMINGTSGQMWPPFMTPESSLEFYSPEACRSMKLMYKESGVFEGIPTYRFVAPKTLFANGSIYPPNEGFCPCLESGIQNVSTCRFSAPLFLSHPHFLNADPVLAEAVTGLHPNQEAHSLFLDIHPVTGIPMNCSVKLQLSLYMKSVAGIGQTGKIEPVVLPLLWFAESGAMEGETLHTFYTQLVLMPKVMHYAQYVLLALGCVLLLVPVICQIRSQVGAGQRAARADSHSLACWGKGASDRTLWPTAAWSPPPAAVLRLCRSGSGHCWGLRSTLASFACRVATTLPVLEGLGPSLGGGTGS [SCARB1] | 0.27 | -0.0198 | -1.41 | -1.54 | 56.6 | 63.1
3 | MGCTVSAEDKAAAERSKMIDKNLREDGEKAAREVKLLLLGAGESGKSTIVKQMKIIHEDGYSEEECRQYRAVVYSNTIQSIMAIVKAMGNLQIDFADPSRADDARQLFALSCTAEEQGVLPDDLSGVIRRLWADHGVQACFGRSREYQLNDSAAYYLNDLERIAQSDYIPTQQDVLRTRVKTTGIVETHFTFKDLHFKMFDVGGQRSERKKWIHCFEGVTAIIFCVALSAYDLVLAEDEEMNRMHESMKLFDSICNNKWFTDTSIILFLNKKDLFEEKITHSPLTICFPEYTGANKYDEAASYIQSKFEDLNKRKDTKEIYTHFTCATDTKNVQFVFDAVTDVIIKNNLKDCGLF [GNAI2] | -0.568 | -0.242 | 0.395 | 0.061 | 53.5 | 54.2
4 | MGCWGRNRGRLLCMLALTFMFMVLEVVVSRVTSSLAMLSDSFHMLSDVLALVVALVAERFARRTHATQKNTFGWIRAEVMGALVNAIFLTGLCFAILLEAIERFIEPHEMQQPLVVLGVGVAGLLVNVLGLCLFHHHSGFSQDSGHGHSHGGHGHGHGLPKGPRVKSTRPGSSDINVAPGEQGPDQEETNTLVANTSNSNGLKLDPADPENPRSGDTVEVQVNGNLVREPDHMELEEDRAGQLNMRGVFLHVLGDALGSVIVVVNALVFYFSWKGCSEGDFCVNPCFPDPCKAFVEIINSTHASVYEAGPCWVLYLDPTLCVVMVCILLYTTYPLLKESALILLQTVPKQIDIRNLIKELRNVEGVEEVHELHVWQLAGSRIIATAHIKCEDPTSYMEVAKTIKDVFHNHGIHATTIQPEFASVGSKSSVVPCELACRTQCALKQCCGTLPQAPSGKDAEKTPAVSISCLELSNNLEKKPRRTKAENIPAVVIEIKNMPNKQPESSL [SLC30A1] | -0.0235 | -0.0896 | -2.04 | -1.95 | 58.4 | 59.4
5 | MGDAPSPEEKLHLITRNLQEVLGEEKLKEILKERELKIYWGTATTGKPHVAYFVPMSKIADFLKAGCEVTILFADLHAYLDNMKAPWELLELRVSYYENVIKAMLESIGVPLEKLKFIKGTDYQLSKEYTLDVYRLSSVVTQHDSKKAGAEVVKQVEHPLLSGLLYPGLQALDEEYLKVDAQFGGIDQRKIFTFAEKYLPALGYSKRVHLMNPMVPGLTGSKMSSSEEESKIDLLDRKEDVKKKLKKAFCEPGNVENNGVLSFIKHVLFPLKSEFVILRDEKWGGNKTYTAYVDLEKDFAAEVVHPGDLKNSVEVALNKLLDPIREKFNTPALKKLASAAYPDPSKQKPMAKGPAKNSEPEEVIPSRLDIRVGKIITVEKHPDADSLYVEKIDVGEAEPRTVVSGLVQFVPKEELQDRLVVVLCNLKPQKMRGVESQGMLLCASIEGINRQVEPLDPPAGSAPGEHVFVKGYEKGQPDEELKPKKKVFEKLQADFKISEECIAQWKQTNFMTKLGSISCKSLKGGNIS [YARS] | 0.259 | -0.092 | 0.25 | 2.33 | 49.3 | 49.4
6 | MGDMTNSDFYSKNQRNESSHGGEFGCTMEELRSLMELRGTEAVVKIKETYGDTEAICRRLKTSPVEGLPGTAPDLEKRKQIFGQNFIPPKKPKTFLQLVWEALQDVTLIILEIAAIISLGLSFYHPPGEGNEGCATAQGGAEDEGEAEAGWIEGAAILLSVICVVLVTAFNDWSKEKQFRGLQSRIEQEQKFTVVRAGQVVQIPVAEIVVGDIAQVKYGDLLPADGLFIQGNDLKIDESSLTGESDQVRKSVDKDPMLLSGTHVMEGSGRMLVTAVGVNSQTGIIFTLLGAGGEEEEKKDKKGVKKGDGLQLPAADGAAASNAADSANASLVNGKMQDGNVDASQSKAKQQDGAAAMEMQPLKSAEGGDADDRKKASMHKKEKSVLQGKLTKLAVQIGKAGLVMSAITVIILVLYFTVDTFVVNKKPWLPECTPVYVQYFVKFFIIGVTVLVVAVPEGLPLAVTISLAYSVKKMMKDNNLVRHLDACETMGNATAICSDKTGTLTTNRMTVVQAYVGDVHYKEIPDPSSINTKTMELLINAIAINSAYTTKILPPEKEGALPRQVGNKTECGLLGFVLDLKQDYEPVRSQMPEEKLYKVYTFNSVRKSMSTVIKLPDESFRMYSKGASEIVLKKCCKILNGAGEPRVFRPRDRDEMVKKVIEPMACDGLRTICVAYRDFPSSPEPDWDNENDILNELTCICVVGIEDPVRPEVPEAIRKCQRAGITVRMVTGDNINTARAIAIKCGIIHPGEDFLCLEGKEFNRRIRNEKGEIEQERIDKIWPKLRVLARSSPTDKHTLVKGIIDSTHTEQRQVVAVTGDGTNDGPALKKADVGFAMGIAGTDVAKEASDIILTDDNFSSIVKAVMWGRNVYDSISKFLQFQLTVNVVAVIVAFTGACITQDSPLKAVQMLWVNLIMDTFASLALATEPPTETLLLRKPYGRNKPLISRTMMKNILGHAVYQLALIFTLLFVGEKMFQIDSGRNAPLHSPPSEHYTIIFNTFVMMQLFNEINARKIHGERNVFDGIFRNPIFCTIVLGTFAIQIVIVQFGGKPFSCSPLQLDQWMWCIFIGLGELVWGQVIATIPTSRLKFLKEAGRLTQKEEIPEEELNEDVEEIDHAERELRRGQILWFRGLNRIQTQIRVVKAFRSSLYEGLEKPESRTSIHNFMAHPEFRIEDSQPHIPLIDDTDLEEDAALKQNSSPPSSLNKNNSAIDSGINLTTDTSKSATSSSPGSPIHSLETSL [ATP2B2] | -0.538 | -0.123 | -1.72 | -2.96 | 54.2 | 53.6
7 | MGDREQLLQRARLAEQAERYDDMASAMKAVTELNEPLSNEDRNLLSVAYKNVVGARRSSWRVISSIEQKTMADGNEKKLEKVKAYREKIEKELETVCNDVLSLLDKFLIKNCNDFQYESKVFYLKMKGDYYRYLAEVASGEKKNSVVEASEAAYKEAFEISKEQMQPTHPIRLGLALNFSVFYYEIQNAPEQACLLAKQAFDDAIAELDTLNEDSYKDSTLIMQLLRDNLTLWTSDQQDEEAGEGN [YWHAH] | 0.565 | 0.0669 | -1.65 | -1.58 | 52.5 | 52.6
8 | MGDSDDEYDRRRRDKFRRERSDYDRSRERDERRRGDDWNDREWDRGRERRSRGEYRDYDRNRRERFSPPRHELSPPQKRMRRDWDEHSSDPYHSGYEMPYAGGGGGPTYGPPQPWGHPDVHIMQHHVLPIQARLGSIAEIDLGVPPPVMKTFKEFLLSLDDSVDETEAVKRYNDYKLDFRRQQMQDFFLAHKDEEWFRSKYHPDEVGKRRQEARGALQNRLRVFLSLMETGWFDNLLLDIDKADAIVKMLDAAVIKMEGGTENDLRILEQEEEEEQAGKPGEPSKKEEGRAGAGLGDGERKTNDKDEKKEDGKQAENDSSNDDKTKKSEGDGDKEEKKEDSEKEAKKSSKKRNRKHSGDDSFDEGSVSESESESESGQAEEEKEEAEEALKEKEKPKEEEWEKPKDAAGLECKPRPLHKTCSLFMRNIAPNISRAEIISLCKRYPGFMRVALSEPQPERRFFRRGWVTFDRSVNIKEICWNLQNIRLRECELSPGVNRDLTRRVRNINGITQHKQIVRNDIKLAAKLIHTLDDRTQLWASEPGTPPLPTSLPSQNPILKNITDYLIEEVSAEEEELLGSSGGAPPEEPPKEGNPAEINVERDEKLIKVLDKLLLYLRIVHSLDYYNTCEYPNEDEMPNRCGIIHVRGPMPPNRISHGEVLEWQKTFEEKLTPLLSVRESLSEEEAQKMGRKDPEQEVEKFVTSNTQELGKDKWLCPLSGKKFKGPEFVRKHIFNKHAEKIEEVKKEVAFFNNFLTDAKRPALPEIKPAQPPGPAQILPPGLTPGLPYPHQTPQGLMPYGQPRPPILGYGAGAVRPAVPTGGPPYPHAPYGAGRGNYDAFRGQGGYPGKPRNRMVRGDPRAIVEYRDLDAPDDVDFF [SRRT] | -0.305 | 0.214 | 2.79 | 6.86 | 48.2 | 49.1
9 | MGDTSEDASIHRLEGTDLDCQVGGLICKSKSAASEQHVFKAPAPRPSLLGLDLLASLKRREREEKDDGEDKKKSKVSSYKDWEESKDDQKDAEEEGGDQAGQNIRKDRHYRSARVETPSHPGGVSEEFWERSRQRERERREHGVYASSKEEKDWKKEKSRDRDYDRKRDRDERDRSRHSSRSERDGGSERSSRRNEPESPRHRPKDAATPSRSTWEEEDSGYGSSRRSQWESPSPTPSYRDSERSHRLSTRDRDRSVRGKYSDDTPLPTPSYKYNEWADDRRHLGSTPRLSRGRGRREEGEEGISFDTEEERQQWEDDQRQADRDWYMMDEGYDEFHNPLAYSSEDYVRRREQHLHKQKQKRISAQRRQINEDNERWETNRMLTSGVVHRLEVDEDFEEDNAAKVHLMVHNLVPPFLDGRIVFTKQPEPVIPVKDATSDLAIIARKGSQTVRKHREQKERKKAQHKHWELAGTKLGDIMGVKKEEEPDKAVTEDGKVDYRTEQKFADHMKRKSEASSEFAKKKSILEQRQYLPIFAVQQELLTIIRDNSIVIVVGETGSGKTTQLTQYLHEDGYTDYGMIGCTQPRRVAAMSVAKRVSEEMGGNLGEEVGYAIRFEDCTSENTLIKYMTDGILLRESLREADLDHYSAIIMDEAHERSLNTDVLFGLLREVVARRSDLKLIVTSATMDAEKFAAFFGNVPIFHIPGRTFPVDILFSKTPQEDYVEAAVKQSLQVHLSGAPGDILIFMPGQEDIEVTSDQIVEHLEELENAPALAVLPIYSQLPSDLQAKIFQKAPDGVRKCIVATNIAETSLTVDGIMFVIDSGYCKLKVFNPRIGMDALQIYPISQANANQRSGRAGRTGPGQCFRLYTQSAYKNELLTTTVPEIQRTNLANVVLLLKSLGVQDLLQFHFMDPPPEDNMLNSMYQLWILGALDNTGGLTSTGRLMVEFPLDPALSKMLIVSCDMGCSSEILLIVSMLSVPAIFYRPKGREEESDQIREKFAVPESDHLTYLNVYLQWKNNNYSTIWCNDHFIHAKAMRKVREVRAQLKDIMVQQRMSLASCGTDWDIVRKCICAAYFHQAAKLKGIGEYVNIRTGMPCHLHPTSSLFGMGYTPDYIVYHELVMTTKEYMQCVTAVDGEWLAELGPMFYSVKQAGKSRQENRRRAKEEASAMEEEMALAEEQLRARRQEQEKRSPLGSVRSTKIYTPGRKEQGEPMTPRRTPARFGL [DHX38] | -0.327 | 0.0419 | 0.477 | 0.888 | 50.8 | 52
